B1: BCL2L11 peptide (peptide)
peptide: APMSCDKSTQTPSP
B2: ROR1 peptide (peptide)
peptide: DDSGGNATTQTTSD
B3: MUC3A peptide (peptide)
peptide: PVLTSATGTQTSPA
B4: CCL2 peptide (peptide)
peptide: YDSMDHLDKQTQTPKT
B5: OFD1 peptide (peptide)
peptide: AKESCNMETQTSST
B6: CCL7 peptide (peptide)
peptide: QDFMKHLDKKTQTPKL
B7: CAPRIN2 peptide (peptide)
peptide: NQSFTTASTQTPPQ
B8: MAST1 peptide (peptide)
peptide: YGCTRHQSVQTEDG
B9: bassoon (BSN) peptide, modified version with the TQT motif near the C-terminus (peptide)
peptide: PRATAEFSTQTPSP
notes: also called BSN^II; modified BSN peptide
B10: MUC4 peptide with N-terminal aspartates (DDNHWTRSTQTTRE) (peptide)
peptide: DDNHWTRSTQTTRE
B11: ARAP3 peptide (peptide)
peptide: SPSPTGLPTQTPGF
B12: SON peptide (peptide)
peptide: YSRKSRCVSVQTDPT
B13: GLCCI1 peptide (peptide)
peptide: SSSTRSIDTQTPSV
B14: ZFPM1 peptide (peptide)
peptide: PAPPSYSDKGVQTPSK
B15: TOGARAM1 peptide (peptide)
peptide: SKTQQTFGSQTECT
B16: ICE1 peptide (peptide)
peptide: EKELRHIGTQISSD
B17: GP1BA peptide (peptide)
peptide: GQGAALTTATQTTHLE
B18: MUC4 peptide (SQNHWTRSTQTTRE) (peptide)
peptide: SQNHWTRSTQTTRE
B19: CIZ1 peptide (peptide)
peptide: ARAGRSVSTQTGSM
B20: SLC9A2 peptide (peptide)
peptide: DDHSREKGTQTSGD
B21: SPAG5 peptide (peptide)
peptide: HPETQDSSTQTDTS

These binders were tested against dynein light chain LC8 (UniProt P63167 1-89) (assay: ITC; peptide (500 μM) injected into 25 μM LC8 in the cell; 25°C; 50 mM sodium phosphate, 50 mM NaCl, 1 mM sodium azide, 5 mM β-mercaptoethanol, pH 7.5; single-site model; averages of two to three experiments). Details: both partners purified.
Sequence of dynein light chain LC8 (P63167 whole entry): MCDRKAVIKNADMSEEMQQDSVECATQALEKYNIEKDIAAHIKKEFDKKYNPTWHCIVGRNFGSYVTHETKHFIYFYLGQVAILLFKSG

Row | Binder | Kd | stoichiometry N
1 | B1 | 0.16 µM | 1 peptide per LC8 chain
2 | B2 | > 25 µM | –
3 | B3 | – | 1 peptide per LC8 chain
4 | B4 | – | 1 peptide per LC8 chain
5 | B5 | – | 1 peptide per LC8 chain
6 | B6 | – | 1 peptide per LC8 chain
7 | B7 | – | 1 peptide per LC8 chain
8 | B8 | – | 1 peptide per LC8 chain
9 | B9 | – | 1 peptide per LC8 chain
10 | B10 | – | 1 peptide per LC8 chain
11 | B11 | > 25 µM | –
12 | B12 | – | 1 peptide per LC8 chain
13 | B13 | – | 1 peptide per LC8 chain
14 | B14 | – | 1 peptide per LC8 chain
15 | B15 | > 25 µM | –
16 | B16 | – | 1 peptide per LC8 chain
17 | B17 | > 25 µM | –
18 | B18 | – | 1 peptide per LC8 chain
19 | B19 | – | 1 peptide per LC8 chain
20 | B20 | – | 1 peptide per LC8 chain
21 | B21 | – | 1 peptide per LC8 chain

Reference: publication PMC6607443, “Systematic identification of recognition motifs for the hub protein LC8” (Life Science Alliance, 2019)
